The text below walks through data of patent publication US20150031755.

Data set [1] deals with T1, human alpha-CGRP (L-peptide) (Homo sapiens) (UniProt P06881).
T1 sequence: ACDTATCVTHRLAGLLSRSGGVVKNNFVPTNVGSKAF
Kind of data set: SPR. The conditions noted are these: L-RNA; 37 C.

The test system of data set [2] is T2, rat amylin (L-peptide) (Rattus norvegicus).
T2 sequence: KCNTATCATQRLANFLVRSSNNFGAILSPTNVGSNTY
The experiment in a line: cell_activity. The conditions noted are these: L-RNA, L-dC at 41, 5'-40 kDa PEG; cAMP inhibition, MCF-7 cells; p375 prints human amylin for this value but p377 indicates rat amylin.

pIC50, pKd: −log10 of the molar value.

For orientation: pKd means the Kd on a negative log10 scale, so that one unit is a factor of ten. Read a low pKd as a high Kd. Sequence “CGUGCUGUCGGAGACUACUCGUCGAGUAGAAAUAGGUCCCCUCCCACG [212-G1-001 (L)]” showed a pKd in data set [1] of 8.29.

“CCGUGCUGUCGGAGACUACUCGUCGAGUAGAAAUAGGUCCCCUCCCACGG [226-F2-001 (L)]”: the pKd in data set [1] was 8.58.

A word on the pIC50: it is the negative decadic logarithm of the IC50, by convention in mol/L. Low readings indicate a high IC50, high ones a low IC50. As for “CCGUGCUGUCGGAGACUACUCGUCGAGUAGAAAUAGGUCCCCUCCCACGG [NOX-L41 (226-F2-001-D41-5'-40kDa-PEG)]”, the pIC50 in data set [2] is 6.55.
